The series deals with plasminogen according to the present invention (20 mg/ml, Example 8).

Take Elastase: the “plasmin activity after activation” value came to 0.63 U/mg.

Take Endoproteinase Asp-N: the “plasmin activity after activation” value amounted to 4.3 U/mg. The result for Endoproteinase Glu-C reads 0.6 U/mg; that for Ficin, 0.01 U/mg; that for Protease VIII, 9 U/mg. The result for Protease XIII reads 0.01 U/mg. Then Protease XVIII, with 0.7 U/mg; and Protease from S. griseus, with 613.3 U/mg. In the case of Proteinase A, the “plasmin activity after activation” value turned out to be 0.02 U/mg. Then Thrombin, with 83.0 U/mg; and Trypsin, with 11 kU/mg.

The values are drawn from patent US20050124036.
